Assay results published in the RNAGym collection of RNA variant scans (doi:10.7554/elife.90254).

B1: LINE1-full (parent)
chain: UACGUAGGUGGUUUUCCCCUGAUAGUGCUAAGGGGGCCUGGAAGUUUGGACUGGGCAGAGCUCAACACAGCGUGGCAAAGUGGCUGUGGCUAGACUGCCUCUCUGGAUUCCUCGUCACUCAGCAGGGCAUCUCUGAGAGAAAUGCC

Variants of: B1
Experiment: self-cleavage, relative activity (ratio to wild type); higher = more cleavage; in vitro, sequencing; the parent is a self-cleaving ribozyme
Work on A30G U143C yielded a self-cleavage of 1.06.
Variant U9A C18A has a self-cleavage of 1.09.
Work on G4C U91A yielded a self-cleavage of 0.75.
For U20A U47A, the self-cleavage was 1.07.
Work on G4A U130A yielded a self-cleavage of 0.55.
A67U A69U showed a self-cleavage of 0.04.
In the case of G33A U62A, the self-cleavage is reported as 0.01.
Work on G36A U119C yielded a self-cleavage of 2.42.
U104A U130A showed a self-cleavage of 0.89.
In the case of U91A A124G, the self-cleavage is reported as 0.33.
For C37U A124G, the self-cleavage was 0.59.
For U130A A136U, the self-cleavage was 1.18.
U23A U62A showed a self-cleavage of 0.05.
A24G A59G gave a self-cleavage of 0.21.
A59G A94C showed a self-cleavage of 0.29.
Variant A24G G35A has a self-cleavage of 0.69.
For U45C G82A, the self-cleavage was 1.86.
A64U G127C showed a self-cleavage of 0.6.
With U47G C146U the self-cleavage was 1.69.
A57G G60C showed a self-cleavage of 0.11.
A107G C110A showed a self-cleavage of 1.13.
With A94U A107U the self-cleavage was 0.32.
With U15C G74A the self-cleavage was 1.4.
Work on U104C U112G yielded a self-cleavage of 1.41.
For U39A U130C, the self-cleavage was 1.5.
Variant A31U U109C has a self-cleavage of 1.17.
C38U A92G gave a self-cleavage of 0.05.
A42G C120A gave a self-cleavage of 1.54.
For U14A A77G, the self-cleavage was 1.39.
With U12A U52C the self-cleavage was 1.06.
In the case of A59C U134A, the self-cleavage is reported as 1.46.
Work on U5C A64U yielded a self-cleavage of 0.49.
C84G A129G showed a self-cleavage of 0.2.
Work on U12C U96C yielded a self-cleavage of 0.19.
For U9C G93A, the self-cleavage was 0.05.
A30G A117G showed a self-cleavage of 0.91.
With U100C C145U the self-cleavage was 2.29.
U47G U112A gave a self-cleavage of 0.94.
G4A A24U gave a self-cleavage of 1.8.
In the case of U5C U87A, the self-cleavage is reported as 0.15.
U15A A129G gave a self-cleavage of 0.65.
U102C U104A gave a self-cleavage of 1.52.
A31G U119A gave a self-cleavage of 1.39.
U13A U108C showed a self-cleavage of 1.02.
For G7C U73C, the self-cleavage was 0.74.
Work on A2G C38A yielded a self-cleavage of 1.05.
In the case of C63U A94G, the self-cleavage is reported as 0.06.
For G93A A121U, the self-cleavage was 0.06.
With C101U U134C the self-cleavage was 1.45.
U20G U132C showed a self-cleavage of 1.4.
C116A U143C showed a self-cleavage of 0.71.
A42G A65C gave a self-cleavage of 0.07.
In the case of U26A U143A, the self-cleavage is reported as 2.23.
Work on U26A G88A yielded a self-cleavage of 0.07.
Work on G86A U96C yielded a self-cleavage of 0.05.
In the case of G105U A117G, the self-cleavage is reported as 1.74.
Work on U62C A121C yielded a self-cleavage of 0.15.
In the case of U62C A124G, the self-cleavage is reported as 0.08.
Work on A43U A57G yielded a self-cleavage of 0.89.
C68U A140U showed a self-cleavage of 0.22.
In the case of G58U U87C, the self-cleavage is reported as 0.03.
Variant U9A U52C has a self-cleavage of 0.74.
U23C A140G showed a self-cleavage of 1.28.
Variant G83A A107G has a self-cleavage of 0.91.
A78G A117U gave a self-cleavage of 1.6.
Variant C123U A136G has a self-cleavage of 1.49.
In the case of G25U G114A, the self-cleavage is reported as 1.13.
For A24G U115C, the self-cleavage was 1.46.
With U39G U102C the self-cleavage was 1.34.
Work on A57U G144A yielded a self-cleavage of 0.16.
G35A U45C gave a self-cleavage of 0.97.
U100C U102C gave a self-cleavage of 1.65.
Variant A43U U108A has a self-cleavage of 1.46.
Work on G53U U104C yielded a self-cleavage of 2.38.
Variant U62C C120U has a self-cleavage of 0.06.
C95A C146U gave a self-cleavage of 0.08.
Variant G8U C56U has a self-cleavage of 0.28.
For C19U U87A, the self-cleavage was 0.09.
Work on A24G U62A yielded a self-cleavage of 0.07.
In the case of U15A A31U, the self-cleavage is reported as 1.05.
Work on A31C U100C yielded a self-cleavage of 0.92.
U132A A140U gave a self-cleavage of 1.11.
Variant U39A C90G has a self-cleavage of 0.04.
For C123A A141G, the self-cleavage was 1.35.
G35U A142G showed a self-cleavage of 1.56.
In the case of G54A A64G, the self-cleavage is reported as 0.13.
With A24U A77G the self-cleavage was 2.22.
With U12A G35C the self-cleavage was 1.52.
A43G G122A gave a self-cleavage of 0.19.
For U104C G126U, the self-cleavage was 1.59.
For U45G U96C, the self-cleavage was 0.05.
Work on U12C U102A yielded a self-cleavage of 1.66.
For A59U U130C, the self-cleavage was 0.63.
A42U A138G gave a self-cleavage of 1.28.
Variant U46C C128U has a self-cleavage of 0.6.
Work on A59U A67G yielded a self-cleavage of 0.39.
For A6G U85C, the self-cleavage was 0.2.
With A6G U85G the self-cleavage was 0.
For A42U A129G, the self-cleavage was 1.34.
Work on A31U A67G yielded a self-cleavage of 0.41.
With A24C U91A the self-cleavage was 0.57.
Variant G32A U104A has a self-cleavage of 1.17.
G80C gave a self-cleavage of 1.4.
A67U A79G gave a self-cleavage of 0.18.
With G74A the self-cleavage was 0.95.
For U62G, the self-cleavage was 0.05.
U14C C90U showed a self-cleavage of 0.01.
C37A G88U showed a self-cleavage of 0.
A79U A124G showed a self-cleavage of 0.87.
Variant A6U A117G has a self-cleavage of 0.3.
In the case of U1C U23A, the self-cleavage is reported as 0.56.
With G53A C128U the self-cleavage was 1.34.
For U15C C95U, the self-cleavage was 0.28.
Variant U104C U115C has a self-cleavage of 1.92.
For A92G U115A, the self-cleavage was 0.12.
With U26A the self-cleavage was 0.94.
A30U G82A showed a self-cleavage of 1.57.
In the case of G48A A69C, the self-cleavage is reported as 0.02.
A30G A129C showed a self-cleavage of 0.
Work on A2G U73C yielded a self-cleavage of 0.81.
Variant C66U U102A has a self-cleavage of 0.06.
For U45A A67U, the self-cleavage was 0.09.
A50G A67U showed a self-cleavage of 0.1.
In the case of U39C C76U, the self-cleavage is reported as 0.7.
U100C G135A showed a self-cleavage of 1.74.
Work on U23A A78G yielded a self-cleavage of 1.14.
Work on G7C U143C yielded a self-cleavage of 1.93.
G40A A50U showed a self-cleavage of 0.84.
U20G U47C showed a self-cleavage of 0.
Work on A43G A57G yielded a self-cleavage of 0.78.
U62A U134G showed a self-cleavage of 0.1.
U62A U134C showed a self-cleavage of 0.05.
With U81G A107G the self-cleavage was 1.01.
G34A U96C gave a self-cleavage of 0.05.
In the case of A42U G89U, the self-cleavage is reported as 0.04.
For A22G U45C, the self-cleavage was 1.33.
Work on U109A U119A yielded a self-cleavage of 1.36.
U46C A50U gave a self-cleavage of 1.26.
U87G A124G gave a self-cleavage of 0.31.
With A24G A50U the self-cleavage was 1.55.
Variant U39C U91C has a self-cleavage of 0.33.
For U15C G34C, the self-cleavage was 1.59.
U15A G21A gave a self-cleavage of 1.15.
A92C G93U showed a self-cleavage of 0.06.
In the case of U45C A77C, the self-cleavage is reported as 1.15.
Variant G54A G105U has a self-cleavage of 0.7.
In the case of A94U C120G, the self-cleavage is reported as 0.3.
A50G U134A showed a self-cleavage of 0.68.
Variant G72A G83A has a self-cleavage of 1.53.
U29C U132C gave a self-cleavage of 1.46.
Variant U29C U132A has a self-cleavage of 1.47.
For C110U U132C, the self-cleavage was 1.45.
U81A gave a self-cleavage of 1.89.
G27A C98A gave a self-cleavage of 0.14.
With G97C the self-cleavage was 0.19.
A117C U119G gave a self-cleavage of 2.43.
A24U A92G showed a self-cleavage of 0.08.
Variant U15C U85C has a self-cleavage of 0.34.
In the case of U81C U132C, the self-cleavage is reported as 1.61.
For U115C C145G, the self-cleavage was 1.64.
With U143A the self-cleavage was 1.12.
Work on A65G A69C yielded a self-cleavage of 0.
In the case of U45C U85G, the self-cleavage is reported as 0.26.
With U14G A42G the self-cleavage was 1.15.
For G10A G32A, the self-cleavage was 0.73.
With C76G U102C the self-cleavage was 2.25.
Work on G82A G126U yielded a self-cleavage of 2.04.
